The values that follow are results of earlier work, collected in PMC6143783.

The target in data set [1] is GABAA receptor α3 TM3-TM4 loop (Homo sapiens) (UniProt P34903). Description: ITC.
In data set [2] the target is GABAA receptor α1 TM3-TM4 loop (Homo sapiens) (UniProt P14867). Description: ITC. A general note: In ITC the heat of successive injections is recorded.
GABAA receptor α1 TM3-TM4 loop (Homo sapiens), sequence (P14867 334-420): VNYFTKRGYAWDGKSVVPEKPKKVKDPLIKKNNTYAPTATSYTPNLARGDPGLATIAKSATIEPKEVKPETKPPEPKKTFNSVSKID

gephyrin, sequence (Q03555 whole entry): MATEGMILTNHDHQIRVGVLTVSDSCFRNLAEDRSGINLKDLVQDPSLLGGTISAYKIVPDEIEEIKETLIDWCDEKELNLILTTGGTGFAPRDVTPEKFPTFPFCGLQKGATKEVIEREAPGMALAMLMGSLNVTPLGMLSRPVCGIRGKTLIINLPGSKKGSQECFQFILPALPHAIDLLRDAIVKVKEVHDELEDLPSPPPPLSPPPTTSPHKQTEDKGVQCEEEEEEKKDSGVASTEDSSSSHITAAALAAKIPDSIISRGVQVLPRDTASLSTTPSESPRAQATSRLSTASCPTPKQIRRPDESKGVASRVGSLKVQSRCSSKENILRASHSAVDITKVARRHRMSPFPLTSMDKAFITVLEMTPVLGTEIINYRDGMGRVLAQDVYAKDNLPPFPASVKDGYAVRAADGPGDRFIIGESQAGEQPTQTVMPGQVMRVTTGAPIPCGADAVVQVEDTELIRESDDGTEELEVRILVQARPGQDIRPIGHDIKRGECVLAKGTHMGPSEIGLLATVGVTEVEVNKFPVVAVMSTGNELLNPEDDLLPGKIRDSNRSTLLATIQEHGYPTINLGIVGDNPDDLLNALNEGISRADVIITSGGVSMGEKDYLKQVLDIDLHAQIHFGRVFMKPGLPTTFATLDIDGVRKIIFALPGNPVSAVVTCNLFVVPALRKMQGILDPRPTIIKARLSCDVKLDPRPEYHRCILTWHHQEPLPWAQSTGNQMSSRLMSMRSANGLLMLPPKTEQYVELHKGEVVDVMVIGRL
GABAA receptor α3 TM3-TM4 loop (Homo sapiens), sequence (P34903 359-457): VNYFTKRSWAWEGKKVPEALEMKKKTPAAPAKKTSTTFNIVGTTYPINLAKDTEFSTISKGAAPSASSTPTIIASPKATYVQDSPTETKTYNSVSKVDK

As a reminder, the Kd is a measure of binding affinity in units of concentration. As to gephyrin (from UniProt Q03555), the dissociation constant (Kd) was 5.3 µM in data set [1] and 17 µM in data set [2].
